For the assay, the target named is T1, MBP-53BP1 IRIF formation fragment a.a. 1220–1639 (human, UniProt Q12888 1220-1639).
T1 construct: 53BP1, minimal region for IRIF formation, a.a; also called in vitro purified 53BP1 a.a; source: E. coli BL21, purified (amylose resin, maltose elution)
As to the kind of experiment: pull-down; in vitro: MBP-purified protein incubated with 10.5 μg biotinylated peptide and 10 μL streptavidin beads, 1 h at 4 °C; washed three times with NETN; western blot. The settings on record: both partners purified. On the technique in general: In western blotting, separated proteins are transferred to a membrane and probed.

Non-standard residues stand in square brackets, D forms with d. No end group written: not given here. *: point of attachment. Biotin = O=C1N[C@H]2[C@H](CS[C@H]2CCCCC(=O)*)N1; pS = N[C@@H](COP(=O)(O)O)C(=O)O

T1 sequence (Q12888 1220-1639): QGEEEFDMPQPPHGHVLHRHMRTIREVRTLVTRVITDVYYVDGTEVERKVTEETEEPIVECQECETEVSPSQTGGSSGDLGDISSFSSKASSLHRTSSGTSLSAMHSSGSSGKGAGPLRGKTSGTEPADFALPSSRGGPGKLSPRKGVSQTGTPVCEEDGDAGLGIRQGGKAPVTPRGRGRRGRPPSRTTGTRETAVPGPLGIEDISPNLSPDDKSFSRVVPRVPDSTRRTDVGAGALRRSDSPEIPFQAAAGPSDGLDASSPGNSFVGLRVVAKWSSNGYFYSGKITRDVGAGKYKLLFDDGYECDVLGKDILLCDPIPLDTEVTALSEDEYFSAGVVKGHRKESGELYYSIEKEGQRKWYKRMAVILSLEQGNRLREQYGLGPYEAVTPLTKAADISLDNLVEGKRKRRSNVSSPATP

B1: biotinylated phosphorylated S139 H2AX C-terminal tail peptide (peptide)
peptide: Biotin-TSATVGPKAPSGGKKATQA[pS]QEY
notes: also called 23-amino acid phosphorylated H2AX C-terminal tail peptide; γH2AX C-terminal tail; source: synthetic peptide, bought: genscript
On to B1, for which the binding result is given as “binds”.
